Our source for the cytolysis (51Cr release) of Raji (MHC class II+) cells by CTL expressing CD4:ζ values is EP0871495B1.

The experiment concerns the target MHC class II antigen on the Raji B cell line. The experiment in a line: cell-based or functional assay.

Consider “CD4:ζ chimera (CD4 extracellular domain fused to human T cell receptor ζ chain)”, for which the cytolysis (51Cr release) of Raji (MHC class II+) cells by CTL expressing CD4:ζ worked out at 5 % cytolysis.
